Here are results for 5 molecules from US20240091382A1, “MINIMAL BILE ACID INDUCIBLE PROMOTERS FOR GENE THERAPY” (priority 2020, published 2024).

In this data set the test system is Huh-7 cells. Nature of the data set: Luciferase expression from BSEP-derived promoter plasmids in Huh-7 cells (FXR co-transfection, CDCA induction). Format: cell-based, human. The conditions noted are these: Huh-7, pCMV-hFXRα2, 30 μM CDCA. On the procedure: FIG. 2. […] In all cases, cells were also transfected with a Renilla expressing plasmid (pRL-CMV). Luciferase and Renilla expression were measured with a luminometer. All samples were tested in triplicates and data are presented as mean±SEM of relative (rel.) units (Luciferase units sec^−1/Renilla units sec^−1). The fold induction of each condition relative to cells transfected only with the luciferase plasmid (Luc plasmid) is indicated on top of each column. The statistical comparison between these two conditions was performed by using an unpaired […] T test. *, p<0.05; **, p<0.01; ***, p<0.001. imPr and ihPr, pAAV-imPr-LucPEST and pAAV-ihPr-LucPEST, respectively; full length mPr, pAAV-mBSEPpr-LucPEST; full length hPr, p-2563/+4-Luc; A1AT, pAAV-A1AT-LucPEST.
FIG. 18. […] In all cases, cells were also transfected with the same amount of Renilla expressing plasmid (pRL-CMV) to determine the transfection efficiency. Luciferase and Renilla expression were measured with a luminometer. All samples were tested in triplicates and data are presented as mean±SEM of relative (rel.) units (Luciferase units sec^−1/Renilla units sec^−1). The fold induction of each condition relative to cells transfected only with the luciferase plasmid (Luc plasmid) is indicated on top of each column. The statistical comparison between these two conditions was performed by using an unpaired T test. *, p<0.05; **, p<0.01; ***, p<0.001; ****, p<0.0001.
The inventors first tested whether luciferase expression could be induced by bile salts in hepatic cells from human (Huh-7 and HepG2) and mouse origin (Hepa1-6). For this purpose, they transfected confluent monolayers of these cells in 12-well plates with 0.5 μg pAAV-miPr-LucPEST or pAAV-hiPr-LucPEST plasmids, or with the same amount of control plasmids (pAAV-mBSEPpr-LucPEST, p-2563/+4-Luc and pAAV-A1AT-LucPEST), together with 0.5 μg of plasmids expressing either human FXRα1 (pcDNA3.1-hFXRα1, ordered from GenScript) or FXRα2 (pCMV-hFXRα2, ref NR1H4 cDNA Resource Center, Bloomsburg, PA), two isoforms of FXR that can exert different transcriptional regulation). […] Furthermore, to normalize luciferase expression, and correct for differences in transfection efficiencies, the inventors also co-transfected cells with 0.2 μg of a plasmid expressing Renilla-luciferase from a constitutive promoter (pRL-CMV, Promega). All transfections were performed using lipofectamine 2000 (Thermo Fisher). […] After induction, cells were collected and luciferase and Renilla expression were measured in cell extracts using an Orion L Microplate Luminometer.
The inventors tested luciferase expression of plasmids containing the variants of imPr promoter in Huh-7 cells as described above. Briefly, the inventors transfected confluent cell monolayers in 12-well plates with 0.5 μg of each of the corresponding plasmids, using as control pAAV-miPr-LucPEST, together with 0.5 μg of pCMV-hFXRa2 using lipofectamine 2000. To normalize luciferase expression, the inventors co-transfected cells with 0.2 μg of a plasmid expressing Renilla-luciferase from a constitutive promoter (pRL-CMV). […] After induction, cells were collected and luciferase and Renilla expression were measured in cell extracts as described.

B1: imPr+3xIR-ER2: imPr variant with three repetitions of the IR-1-ER2 element (SEQ ID NO: 20) (nucleic acid)
DNA: TGGACTTTAGGCCATTGACCTATGGACTTTAGGCCATTGACCTATGGACTTTAGGCCATTGACCTAGGTTCCTGCTTTGAGTATGTTCGACCTTTCCTCTCATGTCACTGAACTGTGCTAGATCTGGACTTTAGGCCATTGACCTATAAGCAAATAGATAGTGTTCTTAAAAAAGCCTGATTTCTGTTCAATGCTTTATTACCATGAAAACTGAACTTGGAAAGGGGTGTACAACCCTGACTTTCCACAGTGGCGTCTCTCGCTTCTCCTGGCTCCCTCAAATTCACA
modifications: Synthetic imPr+3xIR-ER2
Turning to B1, the “level of luciferase expression compared to plasmid containing imPr promoter” value is reported as “not observed”.

B2: imPr+LRH-1: slightly longer imPr variant including the upstream LRH-1 element (SEQ ID NO: 21) (nucleic acid)
DNA: TTTCTAAAGCTTGTTGATACCCTCAGAAGGTCCCCACGCACTCTGGGTTTGGGTTCCTGCTTTGAGTATGTTCGACCTTTCCTCTCATGTCACTGAACTGTGCTAGATCTGGACTTTAGGCCATTGACCTATAAGCAAATAGATAGTGTTCTTAAAAAAGCCTGATTTCTGTTCAATGCTTTATTACCATGAAAACTGAACTTGGAAAGGGGTGTACAACCCTGACTTTCCACAGTGGCGTCTCTCGCTTCTCCTGGCTCCCTCAAATTCACA
modifications: Synthetic imPr+ LRH-1
For the molecule B2, the “level of luciferase expression compared to plasmid containing imPr promoter” value is “not observed”.

B3: imPr+3xIR: imPr variant with three extra repeats of the murine IR-1 element (SEQ ID NO: 7) (nucleic acid)
DNA: TTAGGCCATTGACCTATTAGGCCATTGACCTATTAGGCCATTGACCTAGGTTCCTGCTTTGAGTATGTTCGACCTTTCCTCTCATGTCACTGAACTGTGCTAGATCTGGACTTTAGGCCATTGACCTATAAGCAAATAGATAGTGTTCTTAAAAAAGCCTGATTTCTGTTCAATGCTTTATTACCATGAAAACTGAACTTGGAAAGGGGTGTACAACCCTGACTTTCCACAGTGGCGTCTCTCGCTTCTCCTGGCTCCCTCAAATTCACA
modifications: Synthetic imPR+3xIR
Consider B3, for which the “level of luciferase expression compared to plasmid containing imPr promoter” value is reported as “significantly higher level of luciferase expression” and the “luciferase expression compared to imPr+1xIR” value is “significantly higher luciferase expression than imPr+1xIR”.

B4: imPr+1xIR: imPr variant with one extra repeat of the murine IR-1 element at the 5′end (SEQ ID NO: 6) (nucleic acid)
DNA: TTAGGCCATTGACCTAGGTTCCTGCTTTGAGTATGTTCGACCTTTCCTCTCATGTCACTGAACTGTGCTAGATCTGGACTTTAGGCCATTGACCTATAAGCAAATAGATAGTGTTCTTAAAAAAGCCTGATTTCTGTTCAATGCTTTATTACCATGAAAACTGAACTTGGAAAGGGGTGTACAACCCTGACTTTCCACAGTGGCGTCTCTCGCTTCTCCTGGCTCCCTCAAATTCACA
modifications: Synthetic imPR+1xIR
On to B4, for which the “level of luciferase expression compared to plasmid containing imPr promoter” value is listed as “significantly higher level of luciferase expression”.

B5: imPr+5xIR: imPr variant with five extra repeats of the murine IR-1 element (SEQ ID NO: 19) (nucleic acid)
DNA: TTAGGCCATTGACCTATTAGGCCATTGACCTATTAGGCCATTGACCTATTAGGCCATTGACCTATTAGGCCATTGACCTAGGTTCCTGCTTTGAGTATGTTCGACCTTTCCTCTCATGTCACTGAACTGTGCTAGATCTGGACTTTAGGCCATTGACCTATAAGCAAATAGATAGTGTTCTTAAAAAAGCCTGATTTCTGTTCAATGCTTTATTACCATGAAAACTGAACTTGGAAAGGGGTGTACAACCCTGACTTTCCACAGTGGCGTCTCTCGCTTCTCCTGGCTCCCTCAAATTCACA
modifications: Synthetic imPR+5xIR
For B5, the “level of luciferase expression compared to plasmid containing imPr promoter” value is recorded as “not observed”.
